Data from patent US20090291890A1 (published 2009).
Changes are numbered by the printed parent chain. Numbers in names are those of the source.

T1: soluble tissue factor (recombinant human Coagulation Factor III/soluble tissue factor; R&D Systems) (human)
T1 chain: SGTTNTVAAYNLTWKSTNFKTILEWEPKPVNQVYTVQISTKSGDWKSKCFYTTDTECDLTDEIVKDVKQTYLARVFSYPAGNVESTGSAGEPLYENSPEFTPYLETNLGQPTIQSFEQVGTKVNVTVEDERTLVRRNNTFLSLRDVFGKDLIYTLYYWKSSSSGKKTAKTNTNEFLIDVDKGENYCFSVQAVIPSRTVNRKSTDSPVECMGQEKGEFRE

T2: Mesyl-dFPR-ACC
T2 sequence (peptide, N-terminal mesyl; D-Phe at position 1 (dF); C-terminal ACC fluorophore): FPR

B1: FVIIa V158D/Q286R/E296V/M298Q (enzyme)
chain: ANAFLEELRPGSLERECKEEQCSFEEAREIFKDAERTKLFWISYSDGDQCASSPCQNGGSCKDQLQSYICFCLPAFEGRNCETHKDDQLICVNENGGCEQYCSDHTGTKRSCRCHEGYSLLADGVSCTPTVEYPCGKIPILEKRNASKPQGRIVGGKDCPKGECPWQVLLLVNGAQLCGGTLINTIWVVSAAHCFDKIKNWRNLIAVLGEHDLSEHDGDEQSRRVAQVIIPSTYVPGTTNHDIALLRLHQPVVLTDHVVPLCLPERTFSERTLAFVRFSLVSGWGRLLDRGATALVLQVLNVPRLMTQDCLQQSRKVGDSPNITEYMFCAGYSDGSKDSCKGDSGGPHATHYRGTWYLTGIVSWGQGCATVGHFGVYTRVSQYIEWLQKLMRSEPRPGVLLRAPFP
B2: FVIIa T239V/Q286R/M298Q (enzyme)
chain: B1 chain with D158V, T239V, V296E
B3: H257S/Q286R/M298Q/H373F-FVIIa (enzyme)
chain: B1 chain with D158V, H257S, V296E, H373F
B4: S222A/T239I-FVIIa (enzyme)
chain: B1 chain with D158V, S222A, T239I, R286Q, V296E, Q298M
B5: H257A/Q286R/M298Q-FVIIa (enzyme)
chain: B1 chain with D158V, H257A, V296E
B6: V158D/E296V/M298Q/H373F-FVIIa (enzyme)
chain: B1 chain with R286Q, H373F
B7: FVIIa S222A/T239V/H257A/Q286R/M298Q (enzyme)
chain: B1 chain with D158V, S222A, T239V, H257A, V296E
B8: S222A/T239I/H257A/Q286R/M298Q-FVIIa (enzyme)
chain: B1 chain with D158V, S222A, T239I, H257A, V296E
B9: T239I/Q286R/H373F-FVIIa (enzyme)
chain: B1 chain with D158V, T239I, V296E, Q298M, H373F
B10: T239I/Q286R-FVIIa (enzyme)
chain: B1 chain with D158V, T239I, V296E, Q298M
B11: T239I/Q286R/M298Q/H373F-FVIIa (enzyme)
chain: B1 chain with D158V, T239I, V296E, H373F
B12: S222A/H257S/Q286R/M298Q-FVIIa (enzyme)
chain: B1 chain with D158V, S222A, H257S, V296E
B13: T239I/Q286R/M298Q-FVIIa (enzyme)
chain: B1 chain with D158V, T239I, V296E
B14: S222A/Q286R/M298Q-FVIIa (enzyme)
chain: B1 chain with D158V, S222A, V296E
B15: H257S/Q286R/M298Q-FVIIa (enzyme)
chain: B1 chain with D158V, H257S, V296E
B16: V158D/T239I/E296V/M298Q-FVIIa (enzyme)
chain: B1 chain with T239I, R286Q
B17: Gla swap FIX/S222A/Q286R/M298Q-FVIIa (enzyme)
chain: YNSGKLEEFVQGNLERECMEEKCSFEEAREVFENTERTTEFWKQYSDGDQCASSPCQNGGSCKDQLQSYICFCLPAFEGRNCETHKDDQLICVNENGGCEQYCSDHTGTKRSCRCHEGYSLLADGVSCTPTVEYPCGKIPILEKRNASKPQGRIVGGKVCPKGECPWQVLLLVNGAQLCGGTLINTIWVVSAAHCFDKIKNWRNLIAVLGEHDLSEHDGDEQARRVAQVIIPSTYVPGTTNHDIALLRLHQPVVLTDHVVPLCLPERTFSERTLAFVRFSLVSGWGRLLDRGATALELQVLNVPRLMTQDCLQQSRKVGDSPNITEYMFCAGYSDGSKDSCKGDSGGPHATHYRGTWYLTGIVSWGQGCATVGHFGVYTRVSQYIEWLQKLMRSEPRPGVLLRAPFP
B18: Gla swap FIX/T128N/P129A/A175S/S222A/Q286R-FVIIa (enzyme)
chain: B17 chain with T129N, P130A, A176S, Q299M
B19: FVIIa K109N (enzyme)
chain: B1 chain with K109N, D158V, R286Q, V296E, Q298M
B20: FVIIa T239V/Q286R (enzyme)
chain: B1 chain with D158V, Y234V, V296E, Q298M
B21: FVIIa T239I/Q286R (enzyme)
chain: B1 chain with D158V, T239I, V296E, Q298M
B22: FVIIa T239I (enzyme)
chain: B1 chain with D158V, T239I, R286Q, V296E, Q298M
B23: FVIIa A175S (enzyme)
chain: B1 chain with D158V, A175S, R286Q, V296E, Q298M
B24: FVIIa T239I/Q286R/H373F (enzyme)
chain: B1 chain with D158V, T239I, V296E, Q298M, H373F
B25: FVIIa S222A/H257A/Q286R (enzyme)
chain: B1 chain with D158V, S222A, H257A, V296E, Q298M
B26: FVIIa T239V (enzyme)
chain: B1 chain with D158V, T239V, R286Q, V296E, Q298M
B27: FVIIa S222A/Q286R (enzyme)
chain: B1 chain with D158V, S222A, V296E, Q298M
B28: FVIIa H257S (enzyme)
chain: B1 chain with D158V, H257S, R286Q, V296E, Q298M
B29: FVIIa Gla swap FIX (enzyme)
chain: B17 chain with A223S, R287Q, Q299M

Molecular target: Factor X (Homo sapiens (Human)) (UniProt P00742)
Assay: not given

kcat/KM (M^-1s^-1), TF-dependent assay	kcat/KM, TF-independent assay	kcat/KM, TF-dependent assay	Binder
1.49e+08 M⁻¹ s⁻¹	1020 M⁻¹ s⁻¹	–	B1
1.72e+08 M⁻¹ s⁻¹	29.3 M⁻¹ s⁻¹	–	B2
1.52e+08 M⁻¹ s⁻¹	30.4 M⁻¹ s⁻¹	–	B3
3.05e+07 M⁻¹ s⁻¹	1.7 M⁻¹ s⁻¹	–	B4
–	61.5 M⁻¹ s⁻¹	1.13e+08 M⁻¹ s⁻¹	B5
–	1300 M⁻¹ s⁻¹	1.51e+08 M⁻¹ s⁻¹	B6
2.14e+08 M⁻¹ s⁻¹	143 M⁻¹ s⁻¹	–	B7
1.14e+08 M⁻¹ s⁻¹	51.6 M⁻¹ s⁻¹	–	B8
6.18e+07 M⁻¹ s⁻¹	–	–	B9
5.79e+07 M⁻¹ s⁻¹	4.6 M⁻¹ s⁻¹	–	B10
1.08e+08 M⁻¹ s⁻¹	13.1 M⁻¹ s⁻¹	–	B11
1.58e+08 M⁻¹ s⁻¹	–	–	B12
1.13e+08 M⁻¹ s⁻¹	11.3 M⁻¹ s⁻¹	–	B13
1.29e+08 M⁻¹ s⁻¹	253 M⁻¹ s⁻¹	–	B14
1.4e+08 M⁻¹ s⁻¹	27.4 M⁻¹ s⁻¹	–	B15
1.45e+08 M⁻¹ s⁻¹	216 M⁻¹ s⁻¹	–	B16
2.1e+08 M⁻¹ s⁻¹	415 M⁻¹ s⁻¹	–	B17
–	30.5 M⁻¹ s⁻¹	3.88e+07 M⁻¹ s⁻¹	B18

Molecular target: T1, soluble tissue factor (recombinant …)
Assay: SPR (Biacore T100), sTF on chip, two-state fit

Affinity Kd-WT/Kd-mut	Kd	Binder
3.5	2.2 nM	B1
3.1	2.5 nM	B2
–	10.8 nM	B19
1.7	2.3 nM	B20
1	8 nM	B21
3.4	2.2 nM	B7
1.2	6.2 nM	B22
0.6	12.3 nM	B23
1	7.8 nM	B24
1.3	6 nM	B25
1.5	5.2 nM	B26
2.3	3.4 nM	B27
1.2	6.6 nM	B28
–	36 nM	B29

Molecular target: T2, Mesyl-dFPR-ACC
Assay: not given

Activity (µmol/sec/µmol), specific activity for mesyl-dFPR-ACC (µmol/sec/µmol)	Binder
1.83	B1
1.74	B2
2.32	B3
1.36	B4
2.18	B5
1.26	B20
5.6	B6
1.66	B7
1.41	B8
1.24	B9
0.88	B10
1.59	B11
1.77	B12
1.37	B13
1.9	B14
1.85	B15
2.24	B16
1.12	B17
0.75	B18
